Measured values published in patent USRE43371 (dated 2012).
Square brackets hold non-standard residues; d marks the D form. MeBmt = C/C=C/C[C@@H](C)[C@@H](O)[C@H](NC)C(=O)O; NMeI = CC[C@H](C)[C@H](NC)C(=O)O; NMeL = CN[C@@H](CC(C)C)C(=O)O; NMeV = CN[C@H](C(=O)O)C(C)C; Abu = CC[C@H](N)C(=O)O; Sar = CNCC(=O)O

Experiments:
cyclophilin (Sigma) = assay: cell-based or functional assay
[1] = molecular target: T1, human recombinant cyclophilin A (Sigma) (human, UniProt P62937 1-165); assay: chymotrypsin-coupled spectrophotometric PPIase assay, tight binding inhibitor fit
T1 construct: Bought protein
T1 sequence (P62937 whole entry): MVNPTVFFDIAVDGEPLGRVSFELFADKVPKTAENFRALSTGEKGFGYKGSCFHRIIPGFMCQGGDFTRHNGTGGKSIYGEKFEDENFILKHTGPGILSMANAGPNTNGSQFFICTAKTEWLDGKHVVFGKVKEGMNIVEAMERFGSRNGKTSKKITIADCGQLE

Chain of cyclophilin (Sigma) (P62937 whole entry): as above

- PPIase (IC50 of inhibition of cyclophilin PPIase activity, relative to cyclosporin A = 1.0) (cyclophilin (Sigma)): 0.5 relative to CsA
- Ki [1]: 2.11 nM
B1: [MeIle]^4-CsA (peptide)
peptide: cyclo([MeBmt][Abu][Sar][NMeI]V[NMeL]A[dA][NMeL][NMeL][NMeV])
notes: also called [Melle]^4-CsA; NIM811
